{"source": "patent US8283445B2", "about": "“Extracellular-signal-regulated-kinase (ERK) heteropolyligand polypeptide” (Intrexon Corporation, priority 2006, dated 2012)", "molecules": {"B1": {"name": "SEQ ID NO:5: ERK heteropolyligand of SEQ ID NOS:32, 98, 33, 34, 35, 100, 36, 37, 107, Xaa alanine, with spacers (protein)", "chain": "PPLMAPPFYPQKGRKPRDLELPLAAAAKQAEAVTAPRGAGAKNIVTPRAPPPSQGKGGGGTLSPIAPRAPAKLSFQFPSSAGPGAEFLKPIESSILAQRRVRKLPSTAGAGKRELVEPLAPSGEAPNQALLRAAGGYSPTAPTYSPTAPKKKGGAATPTAAHSGSHLFGFP", "modifications": "Synthetic polyligand"}, "B2": {"name": "SEQ ID NO:1: ERK heteropolyligand A-S1-B-S2-C-S3-D-S4-E-S5-F of SEQ ID NOS:91, 97, 28, 29, 30, 31, Xaa alanine, with spacers (protein)", "chain": "MPKKKPTPIQLNPAAKGRKPRDLELPAAAATGPLAPGPFGAGAYSPTAPTYSPTAPKKKGGGGAPRAPGGRRAGAGRRPRAPAKLSFFFPS", "modifications": "Synthetic polyligand"}, "B3": {"name": "NLS: SEQ ID NO:1 fused to a nuclear localization signal and c-Myc epitope tag (protein)", "chain": "B2 chain", "modifications": "left off: small tags and cut ends"}, "B4": {"name": "NXP: SEQ ID NO:1 fused to a nuclear-exclusion localization signal and c-Myc epitope tag (protein)", "chain": "B2 chain", "modifications": "left off: small tags and cut ends"}, "B5": {"name": "PLA-localized SEQ ID NO:1: SEQ ID NO:1 targeted to the plasma membrane (protein)", "chain": "B2 chain", "modifications": "left off: small tags and cut ends"}}, "key": {"MEK": {"tested_on": "MEK", "conditions": "cited from earlier work"}, "NIH3T3 cells [1]": {"tested_on": "NIH3T3 cells", "test": "G418-resistant colony formation (cell proliferation) in NIH3T3 cells", "assay_type": "cell-based, mouse"}, "NIH3T3 cells [2]": {"tested_on": "NIH3T3 cells", "test": "Transformed foci formation (cell transformation) in NIH3T3 cells", "assay_type": "cell-based, mouse", "conditions": "for Inhibition of cell transformation rates: H-RasV12 transformed cells; for Inhibition of cell transformation (foci formation): transformation by H-ras V12 or v-Src, constructs 1 μg each, FIG. 20", "procedure": "Transformed foci formation was assayed in NIH3T3 cells transfected with H-ras V12 or v-Src (0.25 ng) plus constructs (1 μg each).\nAdditionally, experiments where inhibition of ERK signaling using ERK ligands of the invention was compared to siRNAs and a small molecule inhibitor. The commercial siRNAs were designed for target specificity to either the ERK1 (sc-29307) or ERK2 (sc-35335) isoforms (Santa Cruz Biotechnology, Inc.). The small molecule inhibitor, UO126 (1,4-diamino-2,3-dicyano-1,4-bis(2-aminophenylthio) butadiene), inhibits ERK signaling through its upstream effector, MEK, and ERK is the only known substrate for MEK. Assays performed were phenotypic assays. The effects of inhibiting ERK activity were measured by looking at functional properties of the cells associated with the MAPK signaling pathway, such as, cell proliferation and transformation. The MAPK signaling cascade in these experiments is initiated by transfection of the cells with a vector containing a constitutively active proto-oncogene, either H-RasV12 or v-Src, which eventually causes the cells to acquire enhanced growth rate (colony formation) and cell transformation rate (foci formation). Inhibition of ERK activity in this cascade will result in reduced rates of proliferation or transformation as measured by numbers of G418-resitant colonies or foci.\nNext, the effect of ERK inhibition on cell transformation was investigated using two means of initiating signaling cascades that lead to this biological property (FIG. 20). The first method is the constitutively active Ras mutant used herein above. The second is a constitutively active nonreceptor tyrosine kinase v-Src mutant (pp 60v-src) that also leads to cell transformation, potentially by multiple signaling pathways including the Ras-Raf-MEK-ERK pathway. […] However, when transformation was initiated with v-Src, there was a difference in the inhibition specificity arising from use of SEQ ID NO:1 localized to the ER and PLA. […] That is, ER-localized SEQ ID NO:1 has a significant effect on transformation induced by H-RasV12 but little to no effect when transformation is induced by v-Src."}, "ERK": {"tested_on": "ERK", "test": "Localized inhibition of ERK-mediated myelin basic protein phosphorylation in Cos7 cells", "assay_type": "cell-based", "text": "A constitutively-active form of the RasV12 protein, a known activator of MAPK signaling pathways, was used to activate ERK kinase in defined regions of Cos7 cells. Several fusion proteins as described by Matallanas et al. Mol Cell Biol. 2006 January; 26(1):100-116 (hereby incorporated by reference), were used to activate ERK kinase in specific subcellular compartments. The constitutively-active RasV12 protein promoted cell-wide activation of ERK. The Lck-RasV 12 fusion protein activated ERK-protein associated with lipid rafts in or near the plasma membrane. […] Lane 1: control. Lane 2: ERK activity in cells expressing active Lck-RasV12 fusion protein. Lane 3: ERK activity in cells co-expressing active Lck-RasV12 fusion protein, and ERK decoy protein (ER localization signal, a c-Myc epitope tag, and the ERK polyligand of SEQ ID NO:1). Lane 4: ERK activity in cells co-expressing active Lck-RasV12 fusion protein, and CAT fragment-containing ER localization control protein. Lane 5: ERK activity in cells expressing active M1-RasV12 fusion protein. Lane 6: ERK activity in cells co-expressing active M1-RasV12 fusion protein, and ERK decoy protein. Lane 7: ERK activity in cells co-expressing active M1-RasV12 fusion protein, and CAT fragment-containing ER localization control protein. […]\nThe localized ERK ligands were detected by immunostaining for the c-myc epitope tag."}, "[3]": {"conditions": "pancellular polyligand, vector 1 μg, colonies counted after 15 days, FIG. 18"}, "[4]": {"conditions": "SEQ ID NO:1 fused to localization signals, constructs 1 μg each, 15 days, FIG. 19"}}, "data": [{"molecule": "N#CC(=C(N)Sc1ccccc1N)C(C#N)=C(N)Sc1ccccc1N", "note": "[UO126, 1,4-diamino-2,3-dicyano-1,4-bis(2-aminophenylthio) butadiene, reference compound]", "values": [{"measurement": "Potency for MEK", "setting": "MEK", "result": "~70", "unit": "nM"}, {"measurement": "Inhibition of colony formation", "setting": "NIH3T3 cells [1]; UO126 1 μM, colonies counted after 15 days, FIG. 18", "result": "very effective"}]}, {"molecule": "B1", "values": [{"measurement": "Inhibition of cell transformation rates", "setting": "NIH3T3 cells [2]", "result": "~50", "unit": "%"}, {"measurement": "Inhibition of cell transformation (foci formation)", "setting": "NIH3T3 cells [2]", "result": "inhibited cell transformation"}, {"measurement": "Inhibition of cell proliferation (G418-resistant colony formation)", "setting": "NIH3T3 cells [1]; [3]", "result": "partial inhibition"}]}, {"molecule": "B2", "values": [{"measurement": "Inhibition of cell transformation rates", "setting": "NIH3T3 cells [2]", "result": "~50", "unit": "%"}, {"measurement": "Inhibition of cell transformation (foci formation)", "setting": "NIH3T3 cells [2]", "result": "inhibited cell transformation"}, {"measurement": "ERK activity in the endoplasmic reticulum reduced (MBP phosphorylation)", "setting": "ERK; Cos7 cells with ER-active ERK (M1-RasV12), SEQ ID NO:1 co-expressed as fusion with ER localization signal and c-Myc tag", "result": "approximately 60%"}, {"measurement": "Inhibition of ERK activity as measured by phosphorylation of myelin basic protein (MBP)", "setting": "ERK; ERK activated at plasma membrane, ER or cell wide by localized Ras overexpression", "result": "location-selective inhibition of ERK activity at the endoplasmic reticulum"}, {"measurement": "Inhibition of cell proliferation (G418-resistant colony formation)", "setting": "NIH3T3 cells [1]; [3]", "result": "partial inhibition"}]}, {"molecule": "B3", "values": [{"measurement": "Inhibition of cell proliferation (G418-resistant colony formation)", "setting": "NIH3T3 cells [1]; [4]", "result": "slight inhibition"}]}, {"molecule": "B4", "values": [{"measurement": "Inhibition of cell proliferation (G418-resistant colony formation)", "setting": "NIH3T3 cells [1]; [4]", "result": "slight inhibition"}]}, {"molecule": "B5", "values": [{"measurement": "Inhibition of cell transformation rates", "setting": "NIH3T3 cells [2]", "result": "~50", "unit": "%"}, {"measurement": "Decrease in transformation", "setting": "NIH3T3 cells [2]; transformation initiated with v-Src", "result": "~60", "unit": "%"}, {"measurement": "Inhibition of cell proliferation (G418-resistant colony formation)", "setting": "NIH3T3 cells [1]; [4]", "result": "greatest degree of inhibition"}]}]}
